Experimental findings from publication PMC2872118 (Nature, 2009) are described below.

This series concerns the molecule itself. The experiment in a line: native gel or EMSA. Background: Mobility shift assays separate free from complexed probe on a gel.

B1: PksA SAT-KS-MAT tridomain (domain or fragment)
chain: MAQSRQLFLFGDQTADFVPKLRSLLSVQDSPILAAFLDQSHYVVRAQMLQSMNTVDHKLARTADLRQMVQKYVDGKLTPAFRTALVCLCQLGCFIREYEESGNMYPQPSDSYVLGFCMGSLAAVAVSCSRSLSELLPIAVQTVLIAFRLGLCALEMRDRVDGCSDDRGDPWSTIVWGLDPQQARDQIEVFCRTTNVPQTRRPWISCISKNAITLSGSPSTLRAFCAMPQMAQHRTAPIPICLPAHNGALFTQADITTILDTTPTTPWEQLPGQIPYISHVTGNVVQTSNYRDLIEVALSETLLEQVRLDLVETGLPRLLQSRQVKSVTIVPFLTRMNETMSNILPDSFISTETRTDTGRAIPASGRPGAGKCKLAIVSMSGRFPESPTTESFWDLLYKGLDVCKEVPRRRWDINTHVDPSGKARNKGATKWGCWLDFSGDFDPRFFGISPKEAPQMDPAQRMALMSTYEAMERAGLVPDTTPSTQRDRIGVFHGVTSNDWMETNTAQNIDTYFITGGNRGFIPGRINFCFEFAGPSYTNDTACSSSLAAIHLACNSLWRGDCDTAVAGGTNMIYTPDGHTGLDKGFFLSRTGNCKPYDDKADGYCRAEGVGTVFIKRLEDALADNDPILGVILDAKTNHSAMSESMTRPHVGAQIDNMTAALNTTGLHPNDFSYIEMHGTGTQVGDAVEMESVLSVFAPSETARKADQPLFVGSAKANVGHGEGVSGVTSLIKVLMMMQHDTIPPHCGIKPGSKINRNFPDLGARNVHIAFEPKPWPRTHTPRRVLINNFSAAGGNTALIVEDAPERHWPTEKDPRSSHIVALSAHVGASMKTNLERLHQYLLKNPHTDLAQLSYTTTARRWHYLHRVSVTGASVEEVTRKLEMAIQNGDGVSRPKSKPKILFAFTGQGSQYATMGKQVYDAYPSFREDLEKFDRLAQSHGFPSFLHVCTSPKGDVEEMAPVVVQLAITCLQMALTNLMTSFGIRPDVTVGHSLGEFAALYAAGVLSASDVVYLVGQRAELLQERCQRGTHAMLAVKATPEALSQWIQDHDCEVACINGPEDTVLSGTTKNVAEVQRAMTDNGIKCTLLKLPFAFHSAQVQPILDDFEALAQGATFAKPQLLILSPLLRTEIHEQGVVTPSYVAQHCRHTVDMAQALRSAREKGLIDDKTLVIELGPKPLISGMVKMTLGDKISTLPTLAPNKAIWPSLQKILTSVYTGGWDINWKKYHAPFASSQKVVDLPSYGWDLKDYYIPYQGDWCLHRHQQDCKCAAPGHEIKTADYQVPPESTPHRPSKLDPSKEAFP
The stoichiometry N is the number of molecules, sites or subunits per partner or assembly. In the case of B1, the “stoichiometry N” value amounted to 2.
